Measurements published in patent US5336488A, “Method of treating or preventing mastitis in animals with involuting mammary glands by administering recombinant cytokines” (American Cyanamid Company, priority 1992, dated 1994).

Columns and labels:
milk PMNs = assay: Quantity of milk PMNs after intramammary infusion; format: in vivo, bovine (Holstein dairy cattle)
Method: FIGS. 2(A-I): Quantity and Quality of Milk PMNs from Mammary Glands Infused with r-BolL-1 or r-BoIL-2
A total of 12 mammary glands from normal lactating Holstein dairy cattle are infused through the teat canal with either 200 μg of r-BoIL-1; 2 mg of r-BoIL-2; or 1 mg of r-BoGM-CSF. Milk samples are collected and the number of viable somatic cells counted on a Coulter® ZM with a C256 Channelyzer. The data is expressed as the somatic cell count per ml of milk sampled at 16, 40, 64 and 88 hours after infusion for r-BoIL-1 (A); r-BoIL-2 (D); or r-BoGM-CSF(G). The total percentage of phagocytosis by milk PMNs (polymorphonuclear cells) is quantitatively measured by flow cytometry by measuring the percentage of cells ingesting 2μ fluorescent beads for r-BoIL-1 (B); r-BoIL-2(E); or r-BoGM-CSF(H). The total population is first gated by forward angle light scatter, FALS and 90° light scatter to only consider viable polymorphonuclear cells. The induction of superoxide after PMA (520.eta.g)stimulation is also monitored using a whole cell cytochrome-c reduction assay, for r-BoIL-1 (C); r-BoIL-2(F); or r-BoGM-CSF(I). PMNs from untreated milk could not be induced to produce superoxide, while peripheral blood PMNs are inducible in a range of 5-15 .eta.M O2 /Minute/10^7 PMNs.

Bovine Mammary Gland = assay: Dose response of bovine mammary gland to intramammary infusion: somatic cell influx into milk; format: in vivo, bovine (Holstein dairy cattle); conditions: for infiltration of somatic cells into the milk: lactating cattle, FIG. 1; for minimal effective dose: somatic cell influx
Method: FIG. 1: Dose Response of Bovine Mammary Gland to Intramammary Infusion of Recombinant Cytokines
Five fold serial dilutions of r-BolL-1 (recombinant bovine interleukin-1) from 312.5 μg to […]: r-BoIL-2 (recombinant bovine interleukin-2) from 40 mg to 0.1 mg: and r-BoGM-CSF (recombinant bovine granulocyte macrophage colony stimulating factor) from 0.2 mg to […] are administered at time 0 into 3-4 mammary glands from normal lactating Holstein dairy cattle. A total of 54 mammary gland quarters, 3-4 per group, are infused through the teat canal with various concentrations of recombinant bovine cytokines after the morning milking. Milk samples are collected and the number of viable somatic cells counted on a Coulter® ZM with a C256 Channelyzer. The data is expressed as the somatic cell count per ml of milk
These doses are guidelines for quantitative induction of somatic cells, but significant beneficial qualitative changes can be induced with lower doses. The specific biological activity for r-BoIL-1 as a chemoattractant is approximately 10,000 fold greater than r-BoIL-2, although the in vitro specific bioactivities are equivalent. Active IL-2 inhibition or decreased biostability in milk might explain this discrepancy. The peak number of cells after r-BoIL-1 infusion with a maximal tolerable dose is 4-5 fold greater than r-BoIL-2. The kinetics of PMN migration into the mammary gland is such that migration occurs 8- 24 hours sooner for r-BoIL-1 infusions […] the BolL-2 infusion depending upon the dose. The dominant cell type after r-BoIL-1 or r-BoIL-2 infusion is PMNs.

[1] = tested on: PMNs from mammary glands early in involution; assay: Phagocytic activity of cells from dry cow secretions after cytokine treatment; format: in vivo, bovine (Holstein dairy cattle); conditions: treatment with IL-2
Method: FIG. 5: Phagocytic Ability of PMNs After Cytokine Administration from Mammary Glands Early in Involution
A total of 4 mammary glands from 2 Holstein dairy cattle just entering the dry period are used. All quarters had been infected with S. aureaus for 4-6 weeks prior to treatment. Two of the quarters are treated with Cefa-Dri® and 2 quarters are treated with Cefa-Dri®+1 mg bovine IL-2 by intramammary infusion immediately following the last milking prior to drying-off. Dry cow secretions are then collected at day 3 and day 6 of the dry-off period and the number of viable somatic cells counted on a Coulter® with a C256 Channelyzer. The total percentage of phagocytosis by PMNs is quantitatively measured by flow cytometry by measuring the percentage of cells ingesting 2μ fluorescent beads.
Somatic cells are isolated from mammary gland lavages on days 3 and 6 after treatment with Cefa-Dri® plu6 IL-2 or Cefa-Dri® alone. The cells are incubated with fluorescent latex micropheres and analyzed on the flow cytometer for their ability to phagocytize the beads.

[2] = Milk production in lactations immediately following dry cow therapy; format: in vivo, bovine (dairy cows); conditions: FIG. 6
Method: FIG. 6: Milk Production Early in Lactation Before and After Intramammary Infusion of r-BoIL-2 as a Dry Cow Therapy
Mean milk production in kilograms; (S.D.) is shown for 4 cows for the first six days after the initiation of lactation for the lactation immediately prior to treatment and immediately following treatment. Production after r-BoIL-2 treatment or for the same time period for the lactation prior to treatment is monitored. Total dose of r-BoIL-2 received by each treated cow is 2 mg. Three cows are completing their second lactation and one is completing its third lactation at the time of r-BoIL-2 therapy. Post-treatment production from initiation of the third or fourth lactation is compared to the production for the first 6 days after initiation of the second or third lactation (pre-treatment) respectively of the same animals .
The effects of r-BoIL-2 on possible milk production after dry-cow therapy are also evaluated. Milk production for three dairy cows for the first five days of the lactation cycle (second or third lactation) prior to r-BoIL-2 treatment is compared to the milk production for the first five days of the lactation cycle (third or fourth lactation) immediately following r-BoIL-2 treatment, FIG. 6.

B1: recombinant bovine interleukin-1 (protein, UniProt P09428 114-266, looked up)
Interleukin-1 beta: APVQSIKCKLQDREQKSLVLASPCVLKALHLLSQEMNREVVFCMSFVQGEERDNKIPVALGIKDKNLYLSCVKKGDTPTLQLEEVDPKVYPKRNMEKRFVFYKTEIKNTVEFESVLYPNWYISTSQIEERPVFLGHFRGGQDITDFRMETLSP
notes: recombinant bovine interleukin-1, obtained from IMMUNEX Corp. Seattle, WA
increase over the pre-treatment number of PMNs (milk PMNs; 16 hours, 200 μg, FIG. 2A): 150 ×
increase over the pre-treatment number of PMNs (milk PMNs; 40 hours, 200 μg, FIG. 2A): 20 ×
number of PMNs (milk PMNs; by 112 hours, 200 μg, FIG. 2A): back to normal levels by 112 hours
PMN migration into the mammary gland occurs sooner than with BoIL-2 infusion (Bovine Mammary Gland; depending upon the dose): 8 to 24 h
dominant cell type after infusion (Bovine Mammary Gland; intramammary infusion): PMNs
maximal tolerable dose (Bovine Mammary Gland; intramammary infusion): 1000 mg
infiltration of somatic cells into the milk (Bovine Mammary Gland; intramammary infusion): induce an infiltration of somatic cells into the milk in a dose related manner
specific biological activity as a chemoattractant, greater than r-BoIL-2 (Bovine Mammary Gland; intramammary infusion, relative to r-BoIL-2): approximately 10,000 fold
minimal effective dose (Bovine Mammary Gland; intramammary infusion): 0.5 mg
peak number of cells after infusion, greater than r-BoIL-2 (Bovine Mammary Gland; maximal tolerable dose, relative to r-BoIL-2): 4-5 fold

B2: recombinant bovine interleukin-2 (protein, UniProt P05016 21-155, looked up)
Interleukin-2: APTSSSTGNTMKEVKSLLLDLQLLLEKVKNPENLKLSRMHTFDFYVPKVNATELKHLKCLLEELKLLEEVLNLAPSKNLNPREIKDSMDNIKRIVLELQGSETRFTCEYDDATVNAVEFLNKWITFCQSIYSTMT
notes: recombinant bovine interleukin-2, obtained from IMMUNEX Corp. Seattle, WA
milk PMNs (quantity) (milk PMNs; 2 mg, FIG. 2D): quantitative increase in milk PMNs
milk PMNs (quantity), decline (milk PMNs; after 72 hours, 2 mg, FIG. 2D): diminishes after 72 hours, to control levels
dominant cell type after infusion (Bovine Mammary Gland; intramammary infusion): PMNs
maximal tolerable dose (Bovine Mammary Gland; intramammary infusion): 30 mg
infiltration of somatic cells into the milk (Bovine Mammary Gland; intramammary infusion): induce an infiltration of somatic cells into the milk in a dose related manner
minimal effective dose (Bovine Mammary Gland; intramammary infusion): 0.5 mg
phagocytic activity of cells of the dry gland [1]: seems to enhance the phagocytic activity of cells of the dry gland
improvement in milk production at the following lactation ([2]; first five days of lactation vs prior lactation): 80%
inhibition of milk production at the following lactation ([2]; first five days of lactation): No inhibition of milk production
